Test results reported in US20150344570A1 (published 2015).

T1: FcγRIIa H (FcγRIIa, allotype with His at position 131), extracellular domain with C-terminal His tag (human, UniProt P12318 34-217)
T1 construct: extracellular domain; also called FcgRIIa H; 2aH; not shown: His tag at the C terminus
T1 sequence (looked up): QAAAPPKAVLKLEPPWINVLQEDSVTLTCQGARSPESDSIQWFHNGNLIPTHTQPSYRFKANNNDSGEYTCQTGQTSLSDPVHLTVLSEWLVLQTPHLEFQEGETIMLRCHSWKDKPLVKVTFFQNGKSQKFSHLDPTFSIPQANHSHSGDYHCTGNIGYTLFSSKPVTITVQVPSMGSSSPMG

T2: FcγRIIb, extracellular domain with C-terminal His tag (human, UniProt P31994 43-217)
T2 construct: extracellular domain; also called FcgRIIb; 2b; not shown: His tag at the C terminus
T2 sequence (looked up): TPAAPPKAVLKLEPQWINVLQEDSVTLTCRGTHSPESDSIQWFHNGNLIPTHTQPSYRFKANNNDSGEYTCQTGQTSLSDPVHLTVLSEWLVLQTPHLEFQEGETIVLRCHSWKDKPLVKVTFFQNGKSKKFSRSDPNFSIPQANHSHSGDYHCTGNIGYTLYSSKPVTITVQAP

T3: FcγRIIb extracellular domain with C-terminal His tag (human, UniProt P31994 43-217)
T3 construct: extracellular domain; Soluble receptor used as analyte in Biacore; also called FcgRIIb
T3 sequence (looked up): T2 sequence (looked up)

B1: GpH7-A5/GpH7-B3 variant N325_01G/GpL16-k0 (antibody, human IgG1, kappa)
heavy 1: not shown
heavy 2: not shown
light: DIVMTQSPLSLPVTPGEPASISCQASESLVHSNRNTYLHWYLQKPGQSPQLLIYKVSNRFSGVPDRFSGSGSGTDFTLKISRVEAEDVGVYYCSQNTHVPPTFGQGTKVEIERTVAAPSVFIFPPSDEQLKSGTASVVCLLNNFYPREAKVQWKVDNALQSGNSQESVTEQDSKDSTYSLSSTLTLSKADYEKHKVYACEVTHQGLSSPVTKSFNRGEC
notes: Heterodimerized anti-glypican-3 IgG1; mutation in one H chain only; also called He Ab
B2: GpH7-A5/GpH7-B3 variant K326_14T/GpL16-k0 (antibody, human IgG1, kappa)
heavy 1: not shown
heavy 2: not shown
light: B1 light
notes: as for B1
B3: GpH7-A5/GpH7-B3 variant K326_09D/GpL16-k0 (antibody, human IgG1, kappa)
heavy 1: not shown
heavy 2: not shown
light: B1 light
notes: as for B1
B4: GpH7-A5/GpH7-B3 variant K326_05P/GpL16-k0 (antibody, human IgG1, kappa)
heavy 1: not shown
heavy 2: not shown
light: B1 light
notes: as for B1
B5: GpH7-A5/GpH7-B3 variant N325_02A/GpL16-k0 (antibody, human IgG1, kappa)
heavy 1: not shown
heavy 2: not shown
light: B1 light
notes: as for B1
B6: GpH7-A5/GpH7-B3 variant K326_06M/GpL16-k0 (antibody, human IgG1, kappa)
heavy 1: not shown
heavy 2: not shown
light: B1 light
notes: as for B1
B7: GpH7-A5/GpH7-B3 variant K326_04F/GpL16-k0 (antibody, human IgG1, kappa)
heavy 1: not shown
heavy 2: not shown
light: B1 light
notes: as for B1
B8: GpH7-A5/GpH7-B3 variant N325_03V/GpL16-k0 (antibody, human IgG1, kappa)
heavy 1: not shown
heavy 2: not shown
light: B1 light
notes: as for B1
B9: GpH7-A5/GpH7-B3 variant K326_07I/GpL16-k0 (antibody, human IgG1, kappa)
heavy 1: not shown
heavy 2: not shown
light: B1 light
notes: as for B1
B10: GpH7-A5/GpH7-B3 variant K326_15Y/GpL16-k0 (antibody, human IgG1, kappa)
heavy 1: not shown
heavy 2: not shown
light: B1 light
notes: as for B1
B11: GpH7-A5/GpH7-B3 variant K326_19Q/GpL16-k0 (antibody, human IgG1, kappa)
heavy 1: not shown
heavy 2: not shown
light: B1 light
notes: as for B1
B12: GpH7-A5/GpH7-B3 variant K326_20W/GpL16-k0 (antibody, human IgG1, kappa)
heavy 1: not shown
heavy 2: not shown
light: B1 light
notes: as for B1
B13: GpH7-A5/GpH7-B3 variant K326_10E/GpL16-k0 (antibody, human IgG1, kappa)
heavy 1: not shown
heavy 2: not shown
light: B1 light
notes: as for B1
B14: GpH7-A5/GpH7-B3 variant K326_08L/GpL16-k0 (antibody, human IgG1, kappa)
heavy 1: not shown
heavy 2: not shown
light: B1 light
notes: as for B1
B15: GpH7-A5/GpH7-B3 variant L328_10E/GpL16-k0 (antibody, human IgG1, kappa)
heavy 1: not shown
heavy 2: not shown
light: B1 light
notes: Heterodimerized IgG1, mutation in the GpH7-B3 chain only; also called He Ab
B16: GpH7-A5/GpH7-B3 variant L328_20W/GpL16-k0 (antibody, human IgG1, kappa)
heavy 1: not shown
heavy 2: not shown
light: B1 light
notes: as for B15
B17: GpH7-A5/GpH7-B3 variant N325_08L/GpL16-k0 (antibody, human IgG1, kappa)
heavy 1: not shown
heavy 2: not shown
light: B1 light
notes: as for B15
B18: GpH7-A5/GpH7-B3 variant N325_20W/GpL16-k0 (antibody, human IgG1, kappa)
heavy 1: not shown
heavy 2: not shown
light: B1 light
notes: as for B15
B19: GpH7-A5/GpH7-B3 variant N325_13S/GpL16-k0 (antibody, human IgG1, kappa)
heavy 1: not shown
heavy 2: not shown
light: B1 light
notes: as for B15
B20: GpH7-A5/GpH7-B3 variant L328_14T/GpL16-k0 (antibody, human IgG1, kappa)
heavy 1: not shown
heavy 2: not shown
light: B1 light
notes: as for B15
B21: GpH7-A5/GpH7-B3 variant P331_16H/GpL16-k0 (antibody, human IgG1, kappa)
heavy 1: not shown
heavy 2: not shown
light: B1 light
notes: as for B15
B22: GpH7-A5/GpH7-B3 variant P331_03V/GpL16-k0 (antibody, human IgG1, kappa)
heavy 1: not shown
heavy 2: not shown
light: B1 light
notes: as for B15
B23: GpH7-A5/GpH7-B3 variant L328_13S/GpL16-k0 (antibody, human IgG1, kappa)
heavy 1: not shown
heavy 2: not shown
light: B1 light
notes: as for B15
B24: GpH7-A5/GpH7-B3 variant L328_15Y/GpL16-k0 (antibody, human IgG1, kappa)
heavy 1: not shown
heavy 2: not shown
light: B1 light
notes: as for B15
B25: GpH7-A5/GpH7-B3 variant N325_04F/GpL16-k0 (antibody, human IgG1, kappa)
heavy 1: not shown
heavy 2: not shown
light: B1 light
notes: as for B15
B26: GpH7-A5/GpH7-B3 variant N325_07I/GpL16-k0 (antibody, human IgG1, kappa)
heavy 1: not shown
heavy 2: not shown
light: B1 light
notes: as for B15
B27: GpH7-A5/GpH7-B3 variant N325_06M/GpL16-k0 (antibody, human IgG1, kappa)
heavy 1: not shown
heavy 2: not shown
light: B1 light
notes: as for B15

Target: T1, FcγRIIa H (FcγRIIa, allotype with His …)
Experiment: SPR (Biacore); He/Con_2aH divided by He/Con_2b (FcγRIIb)

Binder | He_2aH/2b (IIaH/IIb) [ratio]
B1 | 0.56
B2 | 0.77
B3 | 0.57
B4 | 0.79
B5 | 0.74
B6 | 0.63
B7 | 0.63
B8 | 0.41
B9 | 0.5
B10 | 0.62
B11 | 0.73
B12 | 0.56
B13 | 0.51
B14 | 0.52

Target: T1, FcγRIIa H (FcγRIIa, allotype with His …)
Experiment: SPR (Biacore), relative binding vs GpH7-A5/GpH7-B3/GpL16-k0

Binder | He/Con_2aH
B1 | 56.8 % of HeCon Ab (=100)
B2 | 114 % of HeCon Ab (=100)
B3 | 110 % of HeCon Ab (=100)
B4 | 98.8 % of HeCon Ab (=100)
B5 | 47.6 % of HeCon Ab (=100)
B6 | 103 % of HeCon Ab (=100)
B7 | 97 % of HeCon Ab (=100)
B8 | 45.2 % of HeCon Ab (=100)
B9 | 100 % of HeCon Ab (=100)
B10 | 98.3 % of HeCon Ab (=100)
B11 | 101 % of HeCon Ab (=100)
B12 | 83.3 % of HeCon Ab (=100)
B13 | 102 % of HeCon Ab (=100)
B14 | 92.7 % of HeCon Ab (=100)

Target: T2, FcγRIIb, extracellular domain with …
Experiment: as above

Binder | He/Con_2b
B1 | 101 % of HeCon Ab (=100)
B2 | 150 % of HeCon Ab (=100)
B3 | 193 % of HeCon Ab (=100)
B4 | 126 % of HeCon Ab (=100)
B5 | 64.4 % of HeCon Ab (=100)
B6 | 165 % of HeCon Ab (=100)
B7 | 155 % of HeCon Ab (=100)
B8 | 111 % of HeCon Ab (=100)
B9 | 199 % of HeCon Ab (=100)
B10 | 159 % of HeCon Ab (=100)
B11 | 139 % of HeCon Ab (=100)
B12 | 148 % of HeCon Ab (=100)
B13 | 200 % of HeCon Ab (=100)
B14 | 177 % of HeCon Ab (=100)

Target: T4, FcγRIa extracellular domain with C-terminal His tag (human, UniProt P12314 16-292)
T4 construct: extracellular domain; Soluble receptor used as analyte in Biacore; also called FcgRI
T4 sequence (P12314 16-292): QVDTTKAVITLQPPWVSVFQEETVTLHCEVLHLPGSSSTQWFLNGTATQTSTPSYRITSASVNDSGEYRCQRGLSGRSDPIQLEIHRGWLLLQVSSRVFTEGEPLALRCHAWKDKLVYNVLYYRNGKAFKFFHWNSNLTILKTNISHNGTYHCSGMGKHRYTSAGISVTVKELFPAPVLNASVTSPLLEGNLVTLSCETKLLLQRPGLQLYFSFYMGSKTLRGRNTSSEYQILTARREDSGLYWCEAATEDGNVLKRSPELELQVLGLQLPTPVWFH
Experiment: ratio He/Con_1a : He/Con_2b (FcγRIa over FcγRIIb), SPR (Biacore)

Binder | He_1a/2b (Ia/IIb)
B15 | 0.59
B16 | 0.44
B17 | 0.5
B18 | 0.56
B19 | 0.55
B20 | 0.71
B21 | 0.8
B22 | 0.78
B23 | 0.66
B24 | 0.53
B25 | 0.65
B26 | 0.55
B27 | 0.45

Target: T4, FcγRIa extracellular domain with …
Experiment: SPR (Biacore), antibody captured, FcγR as analyte; binding relative to GpH7-A5/GpH7-B3/GpL16-k0 = 100

Binder | He/Con_1a [control = 100]
B15 | 101
B16 | 103
B17 | 97.5
B18 | 93.8
B19 | 96.8
B20 | 100
B21 | 92.4
B22 | 92
B23 | 99
B24 | 102
B25 | 93.2
B26 | 94.8
B27 | 97.6

Target: T3, FcγRIIb extracellular domain with …
Experiment: as above

Binder | He/Con_2b [control = 100]
B15 | 172
B16 | 235
B17 | 197
B18 | 169
B19 | 177
B20 | 141
B21 | 116
B22 | 119
B23 | 149
B24 | 193
B25 | 143
B26 | 171
B27 | 217
